Assay results as given in patent publication US9549967B2, “Regulation of sodium channels by PLUNC proteins” (The University of North Carolina at Chapel Hill, priority 2009, dated 2017).

Biological target: T1, α, β and γ ENaC subunits (Rattus norvegicus, UniProt P37089+P37090+P37091)
T1 construct: expressed in transfected cells; host or cells: Xenopus oocytes (cRNA injection), lysates
T1 sequence (P37089 1-698): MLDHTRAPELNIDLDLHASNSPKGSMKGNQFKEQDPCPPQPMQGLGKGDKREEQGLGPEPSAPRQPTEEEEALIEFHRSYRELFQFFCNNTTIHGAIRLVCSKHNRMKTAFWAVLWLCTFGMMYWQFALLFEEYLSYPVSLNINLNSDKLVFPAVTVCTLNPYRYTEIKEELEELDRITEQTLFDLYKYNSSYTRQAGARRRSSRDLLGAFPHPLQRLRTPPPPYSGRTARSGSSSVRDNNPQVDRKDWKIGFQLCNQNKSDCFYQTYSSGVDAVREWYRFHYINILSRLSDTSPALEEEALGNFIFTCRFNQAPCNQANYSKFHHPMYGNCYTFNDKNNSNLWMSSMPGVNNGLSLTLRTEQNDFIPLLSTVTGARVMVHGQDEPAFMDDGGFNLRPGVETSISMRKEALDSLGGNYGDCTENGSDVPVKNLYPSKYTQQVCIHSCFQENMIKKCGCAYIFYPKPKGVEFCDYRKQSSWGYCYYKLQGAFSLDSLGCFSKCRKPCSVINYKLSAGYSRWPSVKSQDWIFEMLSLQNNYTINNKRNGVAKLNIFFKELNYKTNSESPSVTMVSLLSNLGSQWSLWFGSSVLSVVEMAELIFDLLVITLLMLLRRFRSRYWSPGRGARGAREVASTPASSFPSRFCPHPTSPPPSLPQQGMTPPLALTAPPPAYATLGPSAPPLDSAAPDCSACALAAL
T1 sequence (P37090 1-638): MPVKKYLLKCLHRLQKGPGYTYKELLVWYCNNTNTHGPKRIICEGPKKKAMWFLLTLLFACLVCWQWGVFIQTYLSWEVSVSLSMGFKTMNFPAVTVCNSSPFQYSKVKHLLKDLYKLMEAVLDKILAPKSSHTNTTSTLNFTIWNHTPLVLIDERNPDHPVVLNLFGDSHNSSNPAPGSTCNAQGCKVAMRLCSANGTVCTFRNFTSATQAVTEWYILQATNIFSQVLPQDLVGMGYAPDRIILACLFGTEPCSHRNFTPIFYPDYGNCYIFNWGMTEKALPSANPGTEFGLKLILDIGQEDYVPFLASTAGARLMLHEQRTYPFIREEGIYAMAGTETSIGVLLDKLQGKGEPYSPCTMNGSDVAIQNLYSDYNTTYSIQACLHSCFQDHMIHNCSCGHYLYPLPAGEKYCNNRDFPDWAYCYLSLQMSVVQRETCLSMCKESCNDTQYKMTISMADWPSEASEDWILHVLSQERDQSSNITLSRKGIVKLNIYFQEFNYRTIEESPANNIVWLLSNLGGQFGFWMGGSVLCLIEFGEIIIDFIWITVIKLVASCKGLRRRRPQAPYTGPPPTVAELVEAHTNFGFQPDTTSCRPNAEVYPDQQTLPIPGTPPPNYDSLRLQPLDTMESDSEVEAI
T1 sequence (P37091 1-650): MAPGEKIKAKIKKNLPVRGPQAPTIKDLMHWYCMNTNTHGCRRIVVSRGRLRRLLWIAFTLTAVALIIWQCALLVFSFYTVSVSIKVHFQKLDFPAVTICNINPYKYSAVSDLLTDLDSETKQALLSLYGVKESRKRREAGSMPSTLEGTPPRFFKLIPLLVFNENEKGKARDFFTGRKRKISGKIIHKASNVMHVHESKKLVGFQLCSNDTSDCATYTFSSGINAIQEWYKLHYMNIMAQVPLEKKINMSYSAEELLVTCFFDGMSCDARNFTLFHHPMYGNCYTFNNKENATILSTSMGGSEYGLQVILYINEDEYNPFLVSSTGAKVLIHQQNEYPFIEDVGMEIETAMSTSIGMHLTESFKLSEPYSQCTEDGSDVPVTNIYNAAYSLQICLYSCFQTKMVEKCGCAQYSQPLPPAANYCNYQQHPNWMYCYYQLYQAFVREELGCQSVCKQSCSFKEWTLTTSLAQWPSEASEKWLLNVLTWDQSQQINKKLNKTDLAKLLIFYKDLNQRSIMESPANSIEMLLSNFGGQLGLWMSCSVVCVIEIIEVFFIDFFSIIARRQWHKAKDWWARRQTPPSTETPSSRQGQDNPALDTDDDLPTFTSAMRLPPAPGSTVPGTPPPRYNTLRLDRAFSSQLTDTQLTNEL
Assay: Co-immunoprecipitation of V5-tagged SPLUNC1 with HA-tagged ENaC subunits from Xenopus oocytes
Assay type: binding
Conditions: anti-HA immunoprecipitation, probed for V5-tagged SPLUNC1
Protocol: Co-Immunoprecipitation: Xenopus oocytes were injected with either HA-N-Terminus or V5-C-Terminus (HA-NT/V5-CT) tagged subunits in combination with wild type (WT) untagged rat αβγENaC subunits (0.3 ng cRNA each) with or without V5-tagged SPLUNC1 and CAP2 (1 ng cRNA each). After 24 h, 40 eggs per experimental condition were lysed with buffer containing (in mM): 20 Tris, 50 NaCl, 50 NaF, 10 β-glycerophosphate, 5 Na4P2O7 pyrophosphate, 1 EDTA, pH 7.5 and protease inhibitors (complete, Roche), aprotinin (Sigma). Cell lysates were prepared by passing the eggs through a 27 G1/2 needle twice and by centrifugation at 3,600 rpm for 10 minutes at 4° C. Supernatants were transferred to new tubes and samples were spun at 14,000 rpm for 20 minutes at 4° C. Supernatants were discarded and pellets were solubilized in (mM) 50 Tris, 100 NaCl, 0.1% Triton X-100, 0.1% NP-40, 20 NaF, 10 Na4P2O7, 10 EDTA+protease inhibitor cocktail (Sigma), pH 7.5. Total inputs were taken from whole cell samples representing 4% of total protein. Solubilized proteins were incubated with 50 μl of protein A and 5 μl of anti-HA antibody (Covance) overnight while tumbling at 4° C. Samples were washed three times with (mM) 150 NaCl 50 Tris pH 7.5 buffer. Laemmli buffer was added and samples were loaded on a 15% gradient Tris-glycine gel after incubation for 10 minutes at 96° C. […]

B1: SPLUNC1: human SPLUNC1, 256 amino acid secreted PLUNC protein (SEQ ID NO:1); rSPLUNC1 = V5/6His-tagged protein purified from HEK293 media (protein, listed as Homo sapiens)
chain: MFQTGGLIVFYGLLAQTMAQFGGLPVPLDQTLPLNVNPALPLSPTGLAGSLTNALSNGLLSGGLLGILENLPLLDILKPGGGTSGGLLGGLLGKVTSVIPGLNNIIDIKVTDPQLLELGLVQSPDGHRLYVTIPLGIKLQVNTPLVGASLLRLAVKLDITAEILAVRDKQERIHLVLGDCTHSPGSLQISLLDGLGPLPIQGLLDSLTGILNKVLPELVQGNVCPLVNEVLRGLDITLVHDIVNMLIHGLQFVIKV
modifications: V5/6His tag
notes: rSPLUNC1 = V5/6His-tagged protein purified from HEK293 media
  binding to ENaC subunits (co-immunoprecipitation): bound to all three ENaC subunits
